From publication PMC9443353

Tests used:
ZIKV NS1 [1] = molecular target: T1, ZIKV NS1 (Zika virus, UniProt A0A024B7W1 795-1146); test: ELONA; protein on Cu2+-coated plate; Hill slope fit; ELONA: borate buffer (60 mM in selection), 37 °C, 30 min, pH not stated; specificity: selection buffer, filtration, qPCR; FET: human serum as gate electrolyte; conditions: chain copies: 2; label: digoxigenin
YFV NS1 = YFV NS1 (Yellow fever virus, UniProt P03314 779-1130)
DENV1 NS1 = DENV1 NS1 (Dengue virus serotype 1, UniProt P17763 776-1127); test: filter binding with qPCR; 100 nM aptamer, 40 pmol protein; ELONA: borate buffer (60 mM in selection), 37 °C, 30 min, pH not stated; specificity: selection buffer, filtration, qPCR; FET: human serum as gate electrolyte; conditions: chain copies: 2
DENV3 NS1 = DENV3 NS1 (Dengue virus serotype 3, UniProt Q6YMS4 774-1125); test: as above
ZIKV NS1 [2] = molecular target: T1, ZIKV NS1; test: graphene FET; human serum; Hill n = 0.8 ± 0.2; sequential NS1 addition; ELONA: borate buffer (60 mM in selection), 37 °C, 30 min, pH not stated; specificity: selection buffer, filtration, qPCR; FET: human serum as gate electrolyte; conditions: chain copies: 2

B1: ZIKV60 (digoxigenin-labeled) (ssDNA)
DNA: CTTCTGCCCGCCTCCTTCCGGGCCCCGGGGGGTGTCCAGGCCCATGCGTCGTCCGCGGGGAGACGAGATAGGCGGACACT
For B1, which Kd (ZIKV NS1 [1]) is on record?
The Kd was 2.28 ± 0.28 nM.

B2: ZIKV60 (ssDNA)
DNA: B1 DNA
B2 was tested. Which binding signal (YFV NS1) did it give?
The binding signal was 14.2 ratio ZIKV NS1/YFV NS1 bound.

What about the binding signal (DENV1 NS1) of the same binder?
The binding signal was 14.2 ratio ZIKV NS1/DENV1 NS1 bound.

What about the binding signal (DENV3 NS1) of the same binder?
The binding signal was 13.4 ratio ZIKV NS1/DENV3 NS1 bound.

B3: ZIKV60 (pyrene-modified) (ssDNA)
DNA: B1 DNA
modifications: pyrene
With B3 as the binder, how does the “apparent K (half saturation)” value (ZIKV NS1 [2]) read?
Its value is 1.4 ± 0.3 pg/mL.
